Reference: patent publication US20240240191, “RNA APTAMERS SPECIFIC FOR A-SYNUCLEIN PROTEIN FIBER CONFORMERS” (COMMISSARIAT A L'ENERGIE ATOMIQUE ET AUX ENERGIES …, published 2024)

What was measured:
[1] = target: amyloid-beta 40 fibril (UniProt P05067 P05067:672-711); assay: FP filter; nitrocellulose filter; conditions: tags: Abeta40 fibers, chain copies: fibril (stated)
Method: (§1) The affinity of candidate aptamers as well as that of aptamers from the literature was also measured against different “amyloid” type fibers (Tau1N3R fibers and Aβ40 fibers), in addition to the conformers of F and R α-syn fiber. The affinity of the candidate aptamers against the α-Syn fiber “P110” was also measured. This fiber was made from α-Syn protein truncated from amino acid n° 110 (thus missing the 30 amino acids of the C-terminal domain). The oligonucleotides (aptamers) at 10 nM (hybridized by heat shock to SpG-LNA radioactively marked with P32 for RNA2′F chemistry oligonucleotides, or directly marked with P32 for DNA oligonucleotides) were presented to proteins at 250 nM in a solution of Ts1X containing Igepal at 0.1% and ssDNA added in a 5-1 proportion relative to the oligonucleotides (that is to say between 0.135 μg/ml and 17.325 μg/ml). After 30 min of incubation at 37° C., 25 μL of each mixture is deposited on the nitrocellulose membrane, then filtered. Two washes with Ts1X are then carried out. The amounts of oligonucleotides retained on the nitrocellulose membrane are quantified by exposing the membrane to a photostimulable phosphorus screen. The Kd and Bₘₐₓ were calculated by means of the Prism software using a non-linear regression model analyzing the (specific and non-specific) total affinity of a candidate for the target, assuming that there is only one binding site on the target for the candidate. The measurements were carried out in triplicate (three independent experiments on different days) for the F and R type α-Syn fibers, and in duplicate for the other fibers (Tau1N3R and the fibers Aβ40, and P110) as well as for α-Syn monomers.

[2] = target: alpha-synuclein fibril P110 (C-terminally truncated) (UniProt P37840 P37840:1-110); assay: FP filter; nitrocellulose filter; conditions: tags: fibril lacking the 30 C-terminal residues, chain copies: fibril (stated)
Method: as §1

[3] = target: T1, alpha-synuclein fibril, F-type conformer (fibrils) (UniProt P37840 P37840:1-140); assay: FP filter; nitrocellulose filter; Ts1X (10 mM HEPES pH 7.6, 150 mM NaCl, 5 mM KCl, 1.5 mM CaCl2, 1 mM MgCl2), 0.1% Igepal, ssDNA competitor, 37 C; Bmax 52.48 fmol; 3/3
[4] = target: alpha-synuclein fibril, R-type conformer (ribbons) (UniProt P37840 P37840:1-140); assay: FP filter; nitrocellulose filter; not above random sequence
[5] = target: T1, alpha-synuclein fibril, F-type …; assay: as above
[6] = target: T1, alpha-synuclein fibril, F-type …; assay: FP filter; nitrocellulose filter; 10 nM aptamer, 1 uM fibers, Ts1X, 37 C
[7] = target: T1, alpha-synuclein fibril, F-type …; assay: FP filter; nitrocellulose filter; retained much more than random sequence

amyloid-beta 40 fibril, sequence (P05067 672-711, one chain of several): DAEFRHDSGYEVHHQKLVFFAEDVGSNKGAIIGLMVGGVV

B1: N30-G (ssRNA)
RNA: GGGAGAGUAUCCGUUGAGGCUGAUCGAUCCACGUCCGACAACGCGUUUACUCGCCAUCAGAUCGGAAGAGCGUCGUGUAGGGCAUUGCCCCAGCGUGACUGCCUA
modifications: 2'-F on all pyrimidines
[1]
  binding result: no binding
[2]
  binding result: no binding
[3]
  Kd: 6.62 nM

B2: Tau 3146 (ssDNA)
DNA: GCCTGTTGTGAGCCTCCTGTCGAACCTTTGGGGTGGCTTGACGAAGAAAGTAGTTGAGCGTTTATTCTTGTCTCCC
[4]
  binding result: no binding
[5]
  binding result: no binding

B3: N124-G (ssRNA)
RNA: GGGAGAGUAUCCGUUGAGGCUGAUCCGACCAUGCUUCAACUUAUACCUCGGGGACUGUAGAUCGGAAGAGCGUCGUGUAGGGCAUUGCCCCAGCGUGACUGCCUA
modifications: 2'-F on all pyrimidines
[2]
  binding result: no binding

B4: F5R2 (ssDNA)
DNA: ATCGAGTGGACGAGTGCCTCCGGTACGAGCTGTCTGATGGGTTTGCGCGCAGGATCCA
[1]; label: 32P
  binding result: no binding
[2]; label: 32P
  binding result: no binding

B5: N3-G (ssRNA)
RNA: GGGAGAGUAUCCGUUGAGGCUGACAACGCGUUUACCUCACACCACGUCAUCCGUUGCCAGAUCGGAAGAGCGUCGUGUAGGGCAUUGCCCCAGCGUGACUGCCUA
modifications: 2'-F on all pyrimidines
[6]
  binding signal: 3.5 fold over Scr2-G

B6: 4F01-G (ssRNA)
RNA: GGGAGAGUAUCCGUUGGAGGCAUAGCAGCACACGACCAGUGUGCCCCACACCCAGUGGUGGUCUGUGGUGUGCAGAUCGGAAGAGCGUCGUGUAGGGCAUUGCCCCAGCGUGACUGCCUA
modifications: 2'-F on all pyrimidines
[7]
  binding result: binds

B7: 4F02-G (ssRNA)
RNA: GGGAGAGUAUCCGUUGGAGGCAUGCUGGCAGCACGCACCGCUGACCGCUGGCUGCACUAUGCGUGUGGAGUGCAGAUCGGAAGAGCGUCGUGUAGGGCAUUGCCCCAGCGUGACUGCCUA
modifications: 2'-F on all pyrimidines
[7]
  binding result: binds

B8: 4F03-G (ssRNA)
RNA: GGGAGAGUAUCCGUUGGAGGCAUGCAACAGACGCACCGUACACACAUCUUGGCCGUUGGCUGCCCGACCAGCCAGAUCGGAAGAGCGUCGUGUAGGGCAUUGCCCCAGCGUGACUGCCUA
modifications: 2'-F on all pyrimidines
[7]
  binding result: binds

B9: 4F05-G (ssRNA)
RNA: GGGAGAGUAUCCGUUGGAGGCAUGCCGCAGGCUACACCACAGCUUCCCCUUCAGCGUGUUGUGGAUACUCGGCAGAUCGGAAGAGCGUCGUGUAGGGCAUUGCCCCAGCGUGACUGCCUA
modifications: 2'-F on all pyrimidines
[7]
  binding result: binds

B10: F124-G (PF_124) (ssRNA)
RNA: GGGAGAGUAUCCGUUGGAGGCAUCACGGACACCUACCCGACGGCAUGUCAGGACACAUGUUGUGCUCCGUGUGAGAUCGGAAGAGCGUCGUGUAGGGCAUUGCCCCAGCGUGACUGCCUA
modifications: 2'-F on all pyrimidines
[7]
  binding result: binds

B11: P65-G (P65_10854) (ssRNA)
RNA: GGGAGAGUAUCCGUUGGAGGCAUCGCACAGUGUACACCUACACACAGCAUACCUGUUGGCAUCCCAGGUUGCCAGAUCGGAAGAGCGUCGUGUAGGGCAUUGCCCCAGCGUGACUGCCUA
modifications: 2'-F on all pyrimidines
[7]
  binding result: binds
